Measured values published in patent publication US20220074941A1, “HSP90 COMBINATION THERAPY” (Sloan-Kettering Institute for Cancer Research, priority 2011, published 2022).

Columns and labels:
[1] = test system: Hsp90 complexes in K562 cell extract; assay: Nano-LC-MS/MS of PU-beads pull-downs; type: binding; conditions: protein identified in PU-beads pull-down of K562 cell extract, QSTAR-Elite QTof MS
Method: Protein cargo isolated from cell lysate with PU-beads or control-beads was subjected to proteomic analysis by nano liquid chromatography coupled to tandem mass spectrometry (nano LC-MS/MS). Initial protein identification was performed using the Mascot search engine, and was further evaluated using Scaffold Proteome Software (Tables 5a-d).
(§1) Lysates prepared as mentioned above were first pre-cleaned by incubation with control beads overnight at 4° C. […] Beads were washed with lysis buffer, proteins eluted by boiling in 2% SDS, separated on a denaturing gel and Coomassie stained according to manufacturer's procedure (Biorad). […] Analyses of the batch purified pools were done using a QSTAR-Elite hybrid quadrupole time-of-flight mass spectrometer (QTof MS) (AB/MDS Sciex), equipped with a nano spray ion source. Peptide mixtures (in 20 μL) are loaded onto a trapping guard column (0.3×5-mm PepMap C18 100 cartridge from LC Packings) using an Eksigent nano MDLC system (Eksigent Technologies, Inc) at a flow rate of 20 μL/min. […] Electrospray ionization (ESI) needle voltage was set at about 1800 V. The mass analyzer is operated in automatic, data-dependent MS/MS acquisition mode, with the threshold set to 10 counts per second of doubly or triply charged precursor ions selected for fragmentation scans. Survey scans of 0.25 sec are recorded from 400 to 1800 amu; up to 3 MS/MS scans are then collected sequentially for the selected precursor ions, recording from 100 to 1800 amu. The collision energy is automatically adjusted in accordance with the m/z value of the precursor ions selected for MS/MS. Selected precursor ions are excluded from repeated selection for 60 sec after the end of the corresponding fragmentation duty cycle. […] One missed tryptic cleavage site was allowed, precursor ion mass tolerance=0.4 Da fragment ion mass tolerance=0.4 Da, protein modifications were allowed for Met-oxide, Cys-acrylamide and N-terminal acetylation. MudPit scoring was typically applied with ‘require bold red’ activated, and using significance threshold score p<0.05. Unique peptide counts (or ‘spectral counts’) and percent sequence coverages for all identified proteins were exported to Scaffold Proteome Software (version 2_06_01, www.proteomesoftware.com) for further bioinformatic analysis (Table 5a). Using output from Mascot, Scaffold validates, organizes, and interprets mass spectrometry data, allowing more easily to manage large amounts of data, to compare samples, and to search for protein modifications.

[2] = test system: Hsp90 complexes in Mia-PaCa-2 cell extract; assay: Nano-LC-MS/MS of PU-beads pull-downs; type: binding, human; conditions: protein identified in PU-beads pull-down of Mia-PaCa-2 cell extract; QSTAR-Elite QTof MS
Method: as §1

B1: FAM115A (protein, UniProt Q9Y4C2 1-921, looked up)
TRPM8 channel-associated …: MATPSAAFEALMNGVTSWDVPEDAVPCELLLIGEASFPVMVNDMGQVLIAASSYGRGRLVVVSHEDYLVEAQLTPFLLNAVGWLCSSPGAPIGVHPSLAPLAKILEGSGVDAKVEPEVKDSLGVYCIDAYNETMTEKLVKFMKCGGGLLIGGQAWDWANQGEDERVLFTFPGNLVTSVAGIYFTDNKGDTSFFKVSKKMPKIPVLVSCEDDLSDDREELLHGISELDISNSDCFPSQLLVHGALAFPLGLDSYHGCVIAAARYGRGRVVVTGHKVLFTVGKLGPFLLNAVRWLDGGRRGKVVVQTELRTLSGLLAVGGIDTSIEPNLTSDASVYCFEPVSEVGVKELQEFVAEGGGLFVGAQAWWWAFKNPGVSPLARFPGNLLLNPFGISITSQSLNPGPFRTPKAGIRTYHFRSTLAEFQVIMGRKRGNVEKGWLAKLGPDGAAFLQIPAEEIPAYMSVHRLLRKLLSRYRLPVATRENPVINDCCRGAMLSLATGLAHSGSDLSLLVPEIEDMYSSPYLRPSESPITVEVNCTNPGTRYCWMSTGLYIPGRQIIEVSLPEAAASADLKIQIGCHTDDLTRASKLFRGPLVINRCCLDKPTKSITCLWGGLLYIIVPQNSKLGSVPVTVKGAVHAPYYKLGETTLEEWKRRIQENPGPWGELATDNIILTVPTANLRTLENPEPLLRLWDEVMQAVARLGAEPFPLRLPQRIVADVQISVGWMHAGYPIMCHLESVQELINEKLIRTKGLWGPVHELGRNQQRQEWEFPPHTTEATCNLWCVYVHETVLGIPRSRANIALWPPVREKRVRIYLSKGPNVKNWNAWTALETYLQLQEAFGWEPFIRLFTEYRNQTNLPTENVDKMNLWVKMFSHQVQKNLAPFFEAWAWPIQKEVATSLAYLPEWKENIMKLYLLTQMPH
- Number of Assigned Spectra, K562 Prep 1 [1]: 9
- Number of Assigned Spectra, K562 Prep 2 [1]: 1
- Number of Assigned Spectra, Mia-Paca 2 [2]: 0

B2: FIP1L1 (protein, UniProt Q6UN15 1-594, looked up)
Pre-mRNA 3'-end-processing …: MSAGEVERLVSELSGGTGGDEEEEWLYGGPWDVHVHSDLAKDLDENEVERPEEENASANPPSGIEDETAENGVPKPKVTETEDDSDSDSDDDEDDVHVTIGDIKTGAPQYGSYGTAPVNLNIKTGGRVYGTTGTKVKGVDLDAPGSINGVPLLEVDLDSFEDKPWRKPGADLSDYFNYGFNEDTWKAYCEKQKRIRMGLEVIPVTSTTNKITAEDCTMEVTPGAEIQDGRFNLFKVQQGRTGNSEKETALPSTKAEFTSPPSLFKTGLPPSRNSTSSQSQTSTASRKANSSVGKWQDRYGRAESPDLRRLPGAIDVIGQTITISRVEGRRRANENSNIQVLSERSATEVDNNFSKPPPFFPPGAPPTHLPPPPFLPPPPTVSTAPPLIPPPGFPPPPGAPPPSLIPTIESGHSSGYDSRSARAFPYGNVAFPHLPGSAPSWPSLVDTSKQWDYYARREKDRDRERDRDRERDRDRDRERERTRERERERDHSPTPSVFNSDEERYRYREYAERGYERHRASREKEERHRERRHREKEETRHKSSRSNSRRRHESEEGDSHRRHKHKKSKRSKEGKEAGSEPAPEQESTEATPAE
- Number of Assigned Spectra, K562 Prep 1 [1]: 6
- Number of Assigned Spectra, K562 Prep 2 [1]: 3
- Number of Assigned Spectra, Mia-Paca 2 [2]: 0

B3: APRT (protein, UniProt P07741 2-180, looked up)
Adenine …: ADSELQLVEQRIRSFPDFPTPGVVFRDISPVLKDPASFRAAIGLLARHLKATHGGRIDYIAGLDSRGFLFGPSLAQELGLGCVLIRKRGKLPGPTLWASYSLEYGKAELEIQKDALEPGQRVVVVDDLLATGGTMNAACELLGRLQAEVLECVSLVELTSLKGREKLAPVPFFSLLQYE
- Number of Assigned Spectra, K562 Prep 1 [1]: 0
- Number of Assigned Spectra, K562 Prep 2 [1]: 0
- Number of Assigned Spectra, Mia-Paca 2 [2]: 6

B4: LTV1 (protein, UniProt Q96GA3 1-475, looked up)
Protein LTV1 homolog: MPHRKKKPFIEKKKAVSFHLVHRSQRDPLAADESAPQRVLLPTQKIDNEERRAEQRKYGVFFDDDYDYLQHLKEPSGPSELIPSSTFSAHNRREEKEETLVIPSTGIKLPSSVFASEFEEDVGLLNKAAPVSGPRLDFDPDIVAALDDDFDFDDPDNLLEDDFILQANKATGEEEGMDIQKSENEDDSEWEDVDDEKGDSNDDYDSAGLLSDEDCMSVPGKTHRAIADHLFWSEETKSRFTEYSMTSSVMRRNEQLTLHDERFEKFYEQYDDDEIGALDNAELEGSIQVDSNRLQEVLNDYYKEKAENCVKLNTLEPLEDQDLPMNELDESEEEEMITVVLEEAKEKWDCESICSTYSNLYNHPQLIKYQPKPKQIRISSKTGIPLNVLPKKGLTAKQTERIQMINGSDLPKVSTQPRSKNESKEDKRARKQAIKEERKERRVEKKANKLAFKLEKRRQEKELLNLKKNVEGLKL
- Number of Assigned Spectra, K562 Prep 1 [1]: 5
- Number of Assigned Spectra, K562 Prep 2 [1]: 6
- Number of Assigned Spectra, Mia-Paca 2 [2]: 0

B5: CPNE3 (protein, UniProt O75131 1-537, looked up)
Copine-3: MAAQCVTKVALNVSCANLLDKDIGSKSDPLCVLFLNTSGQQWYEVERTERIKNCLNPQFSKTFIIDYYFEVVQKLKFGVYDIDNKTIELSDDDFLGECECTLGQIVSSKKLTRPLVMKTGRPAGKGSITISAEEIKDNRVVLFEMEARKLDNKDLFGKSDPYLEFHKQTSDGNWLMVHRTEVVKNNLNPVWRPFKISLNSLCYGDMDKTIKVECYDYDNDGSHDLIGTFQTTMTKLKEASRSSPVEFECINEKKRQKKKSYKNSGVISVKQCEITVECTFLDYIMGGCQLNFTVGVDFTGSNGDPRSPDSLHYISPNGVNEYLTALWSVGLVIQDYDADKMFPAFGFGAQIPPQWQVSHEFPMNFNPSNPYCNGIQGIVEAYRSCLPQIKLYGPTNFSPIINHVARFAAAATQQQTASQYFVLLIITDGVITDLDETRQAIVNASRLPMSIIIVGVGGADFSAMEFLDGDGGSLRSPLGEVAIRDIVQFVPFRQFQNAPKEALAQCVLAEIPQQVVGYFNTYKLLPPKNPATKQQKQ
- Number of Assigned Spectra, K562 Prep 1 [1]: 4
- Number of Assigned Spectra, K562 Prep 2 [1]: 5
- Number of Assigned Spectra, Mia-Paca 2 [2]: 0

B6: FHOD1 (protein, UniProt Q9Y613 2-1164, looked up)
FH1/FH2 domain-containing …: AGGEDRGDGEPVSVVTVRVQYLEDTDPFACANFPEPRRAPTCSLDGALPLGAQIPAVHRLLGAPLKLEDCALQVSPSGYYLDTELSLEEQREMLEGFYEEISKGRKPTLILRTQLSVRVNAILEKLYSSSGPELRRSLFSLKQIFQEDKDLVPEFVHSEGLSCLIRVGAAADHNYQSYILRALGQLMLFVDGMLGVVAHSDTIQWLYTLCASLSRLVVKTALKLLLVFVEYSENNAPLFIRAVNSVASTTGAPPWANLVSILEEKNGADPELLVYTVTLINKTLAALPDQDSFYDVTDALEQQGMEALVQRHLGTAGTDVDLRTQLVLYENALKLEDGDIEEAPGAGGRRERRKPSSEEGKRSRRSLEGGGCPARAPEPGPTGPASPVGPTSSTGPALLTGPASSPVGPPSGLQASVNLFPTISVAPSADTSSERSIYKARFLENVAAAETEKQVALAQGRAETLAGAMPNEAGGHPDARQLWDSPETAPAARTPQSPAPCVLLRAQRSLAPEPKEPLIPASPKAEPIWELPTRAPRLSIGDLDFSDLGEDEDQDMLNVESVEAGKDIPAPSPPLPLLSGVPPPPPLPPPPPIKGPFPPPPPLPLAAPLPHSVPDSSALPTKRKTVKLFWRELKLAGGHGVSASRFGPCATLWASLDPVSVDTARLEHLFESRAKEVLPSKKAGEGRRTMTTVLDPKRSNAINIGLTTLPPVHVIKAALLNFDEFAVSKDGIEKLLTMMPTEEERQKIEEAQLANPDIPLGPAENFLMTLASIGGLAARLQLWAFKLDYDSMEREIAEPLFDLKVGMEQLVQNATFRCILATLLAVGNFLNGSQSSGFELSYLEKVSEVKDTVRRQSLLHHLCSLVLQTRPESSDLYSEIPALTRCAKVDFEQLTENLGQLERRSRAAEESLRSLAKHELAPALRARLTHFLDQCARRVAMLRIVHRRVCNRFHAFLLYLGYTPQAAREVRIMQFCHTLREFALEYRTCRERVLQQQQKQATYRERNKTRGRMITETEKFSGVAGEAPSNPSVPVAVSSGPGRGDADSHASMKSLLTSRPEDTTHNRRSRGMVQSSSPIMPTVGPSTASPEEPPGSSLPSDTSDEIMDLLVQSVTKSSPRALAARERKRSRGNRKSLRRTLKSGLGDDLVQALGLSKGPGLEV
- Number of Assigned Spectra, K562 Prep 1 [1]: 5
- Number of Assigned Spectra, K562 Prep 2 [1]: 2
- Number of Assigned Spectra, Mia-Paca 2 [2]: 0

B7: SUPV3L1 (protein, UniProt Q8IYB8 23-786, looked up)
ATP-dependent RNA helicase …: AICSALRPHFGPFPGVLGQVSVLATASSSASGGSKIPNTSLFVPLTVKPQGPSADGDVGAELTRPLDKNEVKKVLDKFYKRKEIQKLGADYGLDARLFHQAFISFRNYIMQSHSLDVDIHIVLNDICFGAAHADDLFPFFLRHAKQIFPVLDCKDDLRKISDLRIPPNWYPDARAMQRKIIFHSGPTNSGKTYHAIQKYFSAKSGVYCGPLKLLAHEIFEKSNAAGVPCDLVTGEERVTVQPNGKQASHVSCTVEMCSVTTPYEVAVIDEIQMIRDPARGWAWTRALLGLCAEEVHLCGEPAAIDLVMELMYTTGEEVEVRDYKRLTPISVLDHALESLDNLRPGDCIVCFSKNDIYSVSRQIEIRGLESAVIYGSLPPGTKLAQAKKFNDPNDPCKILVATDAIGMGLNLSIRRIIFYSLIKPSINEKGERELEPITTSQALQIAGRAGRFSSRFKEGEVTTMNHEDLSLLKEILKRPVDPIRAAGLHPTAEQIEMFAYHLPDATLSNLIDIFVDFSQVDGQYFVCNMDDFKFSAELIQHIPLSLRVRYVFCTAPINKKQPFVCSSLLQFARQYSRNEPLTFAWLRRYIKWPLLPPKNIKDLMDLEAVHDVLDLYLWLSYRFMDMFPDASLIRDLQKELDGIIQDGVHNITKLIKMSETHKLLNLEGFPSGSQSRLSGTLKSQARRTRGTKALGSKATEPPSPDAGELSLASRLVQQGLLTPDMLKQLEKEWMTQQTEHNKEKTESGTHPKGTRRKKKEPDSD
- Number of Assigned Spectra, K562 Prep 1 [1]: 8
- Number of Assigned Spectra, K562 Prep 2 [1]: 3
- Number of Assigned Spectra, Mia-Paca 2 [2]: 0
